Measured values: the supplement of paper PMC9170038

Tested on: MS2 coat protein
Test: apparent KD of MS2 coat protein; designed switch direction (-1 OFF switch, 1 ON switch): -1; higher = weaker reporter binding
In short: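 The buffer was Tris-HCl pH 7.5 with KCl, MgCl2, BSA, DTT, tRNA and Tween-20. In it, SNAP-549-labelled MS2 coat protein was titrated in doubling steps from 0.7 or 1.5 nM to 3 µM over chip-bound RNA switches transcribed by stalled E. coli RNA polymerase on Illumina chips. Apparent KD is the per-design median over clusters of curve fits to normalised fluorescence.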

[1] = input ligand: microRNA oligo, concentration not stated
[2] = Eterna round: R95, input ligand: microRNA oligo, concentration not stated
[3] = Eterna round: R95, input ligand: FMN 200 uM
[4] = Eterna round: R95, input ligand: none

UACAUGAGGAUCACCCAUGUUUUGUCGUGUAUGGUAUUUAUCUAGGAUAUCAAUUUACUUAUUUAUGAGAAGGAGAAUAUUAAU [JMF's solution 19] (Eterna round: R96, puzzle: Exclusion NG 3)
apparent KD of MS2 coat protein [1]: 26.8 nM

UUAUUGUGUGUAGGAUAUGCGUGUUAUUAUUAUGCAGAAGGACAUGAGGAUCACCCAUGUGUAUUAUUAUUAUAUAUUAUAUAU [Title] (Eterna round: R96, puzzle: Exclusion NG 1)
apparent KD of MS2 coat protein (input ligand: FMN 200 uM): 45.3 nM | apparent KD of MS2 coat protein [1]: 27.2 nM | apparent KD of MS2 coat protein (input ligand: none): 27.7 nM

ACAAGCUUUUUGUUUGUCUACAUGAGGAUCACCCAUGUGGGUGUCAGUCAUGCUGGCGUGUGGUGUCGUGGCAGCGC [Sensor V1 S1] (Eterna round: R97, puzzle: Sensor, turn-off variant 1)
apparent KD of MS2 coat protein (input ligand: FMN 200 uM): 978 nM | apparent KD of MS2 coat protein (input ligand: none): 1610 nM

CGACGUGGAGUGAGGAUAUCGUGUUCGAAAGAACGUGAGAAGGCACAUGAGGAUCACCCAUGUGAUUCACGUCG [Omei Ex4B A5] (Eterna round: R97, puzzle: Brourd's mod of Exclusion 4)
apparent KD of MS2 coat protein (input ligand: FMN 200 uM): 27.7 nM | apparent KD of MS2 coat protein (input ligand: none): 20.6 nM

GCUUCGUCUGUGGGUGGUGACAUGAGGAUCACCCAUGUUUUGCUCGUCUUGUGCCGGGCCCGGCGCCCGGGCCCGGC [-38.7, -63.8, A 8%] (Eterna round: R97, puzzle: Sensor, turn-off variant 1)
apparent KD of MS2 coat protein (input ligand: FMN 200 uM): 721 nM | apparent KD of MS2 coat protein (input ligand: none): 955 nM

UUAUUAUAUGAAGGAUAUACUUAACAUGAGGAUCACCCAUGUGGUGUUGUGAGUGAGUGAGUUUAGUAGAAGGUCAAUGAUUUU [JMF's solution 72] (Eterna round: R96, puzzle: Exclusion NG 2)
apparent KD of MS2 coat protein (input ligand: FMN 200 uM): 1490 nM | apparent KD of MS2 coat protein [1]: 186 nM | apparent KD of MS2 coat protein (input ligand: none): 428 nM

GUUAACGCAGGAUAUUAGUACAUGCACAUGAGGAUCACCCAUGUUUAGUGGGUCUAGGAAUAAGAAGGGCGAUGAA [EX5 #21] (Eterna round: R97, puzzle: Exclusion 5)
apparent KD of MS2 coat protein (input ligand: FMN 200 uM): 210 nM | apparent KD of MS2 coat protein (input ligand: none): 227 nM

AUCAGCUCGUGAGGAUAUGAACAUGAGGAUCACCCAUGUAAGAUCAAGCUGCUUCGGCAGCAAGUUCAGAAGGCACGAGCUGAU [ENG2/10-A3] (Eterna round: R96, puzzle: Exclusion NG 2)
apparent KD of MS2 coat protein (input ligand: FMN 200 uM): 182 nM | apparent KD of MS2 coat protein [1]: 84 nM | apparent KD of MS2 coat protein (input ligand: none): 156 nM

ACGCAUUGCCAAAGGUAGUGCGUAACAUGAGGAUCACCCAUGUAGGAUAUGGUAGGCUUUGCUUACCAGAAGGACAUAAUAAUU [Mat - Exclusion NG 3 - Mod of JL - D4] (Eterna round: R96, puzzle: Exclusion NG 3)
apparent KD of MS2 coat protein (input ligand: FMN 200 uM): 43.6 nM | apparent KD of MS2 coat protein [1]: 22.7 nM | apparent KD of MS2 coat protein (input ligand: none): 27.8 nM

CCAUAUAGGAGAGGAUAUACGCACCACUAACUAGUAGAAGGCUCACAUGAGGAUCACCCAUGUGAUUUCUCAAUAUUAUACAUC [Prohibition 73 - Jieux - Exclusion NG 1] (Eterna round: R96, puzzle: Exclusion NG 1)
apparent KD of MS2 coat protein (input ligand: FMN 200 uM): 50.3 nM | apparent KD of MS2 coat protein [1]: 25.6 nM | apparent KD of MS2 coat protein (input ligand: none): 34.8 nM

GGUGCGUAUGUGAGGAUAUGCUGGUCCUUGGCUCGGCAGAAGGCACAUGAGGAUCACCCAUGUGGUGUCGUUCC [salish99_Bmod_ex4_055] (puzzle: Brourd's mod of Exclusion 4)
apparent KD of MS2 coat protein [2]: 42.5 nM

AUAAAACGAGGAUAUGCUGGGCUUCUGUGAUGCAUAUGCUCACAUGAGGAUCACCCAUGUAGAAGGUGUAAAAU [Laaceve] (Eterna round: R96, puzzle: Exclusion 2)
apparent KD of MS2 coat protein (input ligand: FMN 200 uM): 389 nM | apparent KD of MS2 coat protein [1]: 221 nM | apparent KD of MS2 coat protein (input ligand: none): 331 nM

GGUGAGCUAGGAUAUGCUUUGGGCCCGCAUUCCUUCGAUAAACUUGAGGAUCACCCAAGUAGAAGGAGCUUGCC [salish99_ex2_r4_031] (Eterna round: R97, puzzle: Exclusion 2)
apparent KD of MS2 coat protein (input ligand: FMN 200 uM): 30.4 nM | apparent KD of MS2 coat protein (input ligand: none): 17 nM

GUCAGCUCGUCAGGAUAUGAACAUGAGGAUCACCCAUGUAAGAUCAAGCUGCUUCGGCAGCAAGUUCAGAAGGGACGAGCUGAC [ENG2/10-B1] (Eterna round: R96, puzzle: Exclusion NG 2)
apparent KD of MS2 coat protein (input ligand: FMN 200 uM): 161 nM | apparent KD of MS2 coat protein [1]: 78.7 nM | apparent KD of MS2 coat protein (input ligand: none): 113 nM

UAUUAGCAAGUAAGAUCCCACAUGAGGAUCACCCAUGUGCUCGUCAUAUCACGUACUGUGAGGAAACUCACGGUACG [Sensor-V1 #85] (Eterna round: R97, puzzle: Sensor, turn-off variant 1)
apparent KD of MS2 coat protein (input ligand: FMN 200 uM): 114 nM | apparent KD of MS2 coat protein (input ligand: none): 128 nM

CUUAGACAUGAGGAUCACCCAUGUGAGGAUAUGAUGCGAUCGUGCUGACAUGAUCGCAUCAGAAGGCACAAAUG [Mat - Mod of JL D65] (puzzle: Exclusion 1)
apparent KD of MS2 coat protein [2]: 146 nM

AGAGAGUCAGGAUAUCGAAGGUAGAGAAGAGGAGAGUGGUACGAGAAGGGACAUGAGGAUCACCCAUGUAGGUG [JR_Exclusion4)Sub012] (puzzle: Exclusion 4)
apparent KD of MS2 coat protein [3]: 193 nM | apparent KD of MS2 coat protein [2]: 245 nM | apparent KD of MS2 coat protein [4]: 462 nM

GAUCAUGCAGGAUAUACAUGGAACAUGAAAUCAUGAAUUUCACAUGAGGAUCACCCAUGUAGAAGGGCAUGAUC [Omei Ex2 A15] (Eterna round: R97, puzzle: Exclusion 2)
apparent KD of MS2 coat protein (input ligand: FMN 200 uM): 23.1 nM | apparent KD of MS2 coat protein (input ligand: none): 24.9 nM

UUGUACCGGUGAGGAUAUUUUUAAUAGAGCUUUAUGAUAUACAUGAGGAUCACCCAUGUUACGUUAAAGAAGGCAUCGGAUUAU [JL JR Sub091 mod 4] (Eterna round: R96, puzzle: Exclusion NG 2)
apparent KD of MS2 coat protein (input ligand: FMN 200 uM): 18.6 nM | apparent KD of MS2 coat protein [1]: 13.9 nM | apparent KD of MS2 coat protein (input ligand: none): 21.6 nM

CGGCAACAUGUCAGGAUAUAUGUACCGCUGGGUGGAUAGAAGGGACAUGAGGAUCACCCAUGUCGUCCAGCCGG [Tisove] (puzzle: Brourd's mod of Exclusion 4)
apparent KD of MS2 coat protein [3]: 19.4 nM | apparent KD of MS2 coat protein [2]: 12.6 nM | apparent KD of MS2 coat protein [4]: 13.9 nM

CAGUACUGAGGAUAUACAUGAGGAUCACCCAUGUGCCUUAGCUAGGAUACUAGCAUUAGUAGAAGGCAGUACUG [Fiskers Ex 3 828 mod 14] (puzzle: Exclusion 3)
apparent KD of MS2 coat protein [2]: 14.2 nM

CUUAAAAGGUAGGAUAUGCUAGACGAAAGUCUAGCAGAAGGACCUACAUGAGGAUCACCCAUGUGUCCAAUAAG [Mat - Exclusion 6 - Eli Mod - D23] (Eterna round: R97, puzzle: Exclusion 6)
apparent KD of MS2 coat protein (input ligand: FMN 200 uM): 50.6 nM | apparent KD of MS2 coat protein (input ligand: none): 86.3 nM

AAUUCACAUGAGGAUCACCCAUGUCAGGAUAUGGUUUCACGGGUUUCGGUGCGUGAGGCCAGAAGGGACAGCUA (puzzle: Exclusion 1)
apparent KD of MS2 coat protein [2]: 51.5 nM

GAUCUACAUGAGGAUCACCCAUGUAAGGAUAUUGAGUACUCGAAUGGAGAGCAAGGAUCAAGAAGGUGCAAUAU [Eternabot (L1) Solution 79] (Eterna round: R97, puzzle: Exclusion 1)
apparent KD of MS2 coat protein (input ligand: FMN 200 uM): 18.8 nM | apparent KD of MS2 coat protein (input ligand: none): 23.1 nM

AUUGUUUGAUACCUCUAAUACAUGAGGAUCACCCAUGUUAUCGAGGAUAUGUAGAAGAGAGGAGAACAGAAGGCGAAGUAAGAG [JR_ExcNG3_Sub095] (Eterna round: R96, puzzle: Exclusion NG 3)
apparent KD of MS2 coat protein (input ligand: FMN 200 uM): 14.6 nM | apparent KD of MS2 coat protein [1]: 14.5 nM | apparent KD of MS2 coat protein (input ligand: none): 17.7 nM
